Laboratory results reported in publication doi:10.1101/2024.10.11.617910.

Legend:
beta-amyloid 42 peptide = beta-amyloid 42 peptide (UniProt P05067); experiment: SiMoA
[1] = biological target: pyroglutamate beta-amyloid peptide (pGlu3-Aβ); experiment: SiMoA

Substance	limit of detection (LoD) (beta-amyloid 42 peptide)	limit of detection (LoD) [1]
Aducanumab (antibody)	200 pM	56 pM
Donanemab (antibody)		5 pM
